Biological target: the molecule itself
Test: crystal structure

B1: CrgA (contact-regulated gene A), full-length, from Neisseria meningitidis (natural protein, UniProt Q9JXW7 1-299, looked up)
chain: MKTNSEELTVFVQVVESGSFSRAAEQLAMANSAVSRIVKRLEEKLGVNLLNRTTRQLSLTEEGAQYFRRAQRILQEMAAAETEMLAVHEIPQGVLSVDSAMPMVLHLLAPLAAKFNERYPHIRLSLVSSEGYINLIERKVDIALRAGELDDSGLRARHLFDSRFRVIASPEYLAKHGTPQSTEELAGHQCLGFTEPGSLNTWAVLDAQGNPYKISPHFTASSGEILRSLCLSGCGIVCLSDFLVDNDIAEGKLIPLLAEQTSDKTHPFNAVYYSDKAVNLRLRVFLDFLVEELGNNLCG
In the case of B1, the “stoichiometry N” value is reported as 8.
